According to article PMC6466456:
Read-outs that look alike come from different tables or passages of the source.

Experiments:
[1] = biological target: T1, EGFR, human recombinant, hIgG1-Fc tag (Sino Biological) (Homo sapiens, UniProt P00533 25-645); assay: thermofluorimetric analysis
[2] = biological target: T1, EGFR, human recombinant, hIgG1-Fc tag …; assay: flow cytometry, EGFR-coated microspheres
[3] = biological target: T1, EGFR, human recombinant, hIgG1-Fc tag …; assay: thermofluorimetric analysis; remark: listed apart in the source
[4] = biological target: T1, EGFR, human recombinant, hIgG1-Fc tag …; assay: thermofluorimetric analysis; remark: listed apart in the source

B1: KM4 (ssDNA)
DNA: CTTACCTCTTTCTCCCACCGCCCCAAACATAATTGGTATACCGCAACACAACGCACAACACACAACAATCAAT
Kd [1]: ~1 nM

B2: KM4-FITC (ssDNA)
DNA: CTTACCTCTTTCTCCCACCGCCCCAAACATAATTGGTATACCGCAACACAACGCACAACACACAACAATCAAT
modifications: 5' AmMC6
Kd [2]: 46 nM

B3: LINN2 (ssDNA)
DNA: CCGCTTTATTGTTAATTAAGTTTTATATTTCGCACAACACACAACAATCAATATC
binding result [3]: binds

B4: NS-DNA (ssDNA)
DNA: CGACATCTTTAACCTAGCCCTTGTCAGTGCTCTATGACAAGGTGTGTAGACGACATCTAACCTAGC
binding result [4]: no binding
